Reference: the RNAGym collection of RNA variant scans (doi:10.1073/pnas.2313332121)
Variants at the floor of the assay were thinned out.

B1: TPR 5TU (parent)
chain: GGAUCUUCUCGAUCUAACAAAAAAGACAAAUCUGCCACAAAGCUUGAGAGCAUCUUCGGAUGCAGAGGCGGCAGCCUUCGGUGGCGCGAUAGCGCCAACGUUCUCAACUAUGACACGCAAAACGCGUGCUCCGUUGAAUGGAGUUUAUCAUG

Variants of: B1
Assay: polymerase ribozyme fitness, log enrichment relative to wild type (log ratio); higher = more active; in vitro selection for triplet polymerase activity
How it was run: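 Genotype fitness is the logarithm of its enrichment divided by wild-type enrichment, using inverse-variance-weighted averages of replicates. That logarithm is base 2. Enrichment was measured by Illumina sequencing of input and output libraries from one triplicate in vitro selection round, with frozen incubation at −7 °C, on PCR-built, transcribed mutant libraries of each subunit of a heterodimeric triplet polymerase ribozyme, retaining genotypes with ≥10 input reads and ≥1 read per output.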

Variant	polymerase ribozyme fitness (log ratio)
A21C A41U C57U A119U U134A U144A	-4.17
A21G A138C	-4
A21G C27A	-3.89
A21G C76A G86U C93G U101C A122G	-0.0234
A21G U151C	-3.8
A21G C75U A98G C99G C114U	≤ -4.2
A21U A30G C57U A91U U104A G126A	≤ -4.2
A21G A39U G83A U90G G92C C108G	≤ -4.2
A20U G83A C96G C118U U134A U144A	-3.46
A21C U55A C96U	-0.915
A21G G50C A52C C79U C118U	≤ -4.2
A20U C54A A106C	-3.99
A20U C32G C57U A73G U82G G92A	≤ -4.2
A21G G58C	0.298
A20U C35A A41C C95U U145A	≤ -4.2
A21G C35A A49G C96G	≤ -4.2
A20U G42U U55G G62A	≤ -4.2
A21C G25U C96A A97G	-3.82
A20U C125A	-2.05
A21G C87U G140U	-3.6
A21C A41U G71A A98U G136U A147U U148C	≤ -4.2
A21G C27U A40U C69U C95G A98G C99U A115U A142U	≤ -4.2
A20U C85G C125A U145C	-3.41
A21U A26C	-1.48

Variant	polymerase ribozyme fitness (log ratio)
A21U A24U U44A U53G U78G A97U A137C G141C	≤ -4.2
A20U U56G G65A C76U C85A G141C U148C	≤ -4.2
A20U G59U G136C G141U	-3.78
A21G A24G A47G G94C U102G C118U A121U	≤ -4.2
A21G A49U G50A	-0.423
A21G A28G U61C	≤ -4.2
A21C U53A C85A	-2.67
A21C G68U	≤ -4.2
A20U U61G C87U C95U	-3.33
A20U G81C A147U	-0.168
A21G U55A C96U G117A	0.86
A21G A24G C51U U104G A113U	≤ -4.2
A20U C57U A66U C95A U102C G141A U145G	≤ -4.2
A21C A40C G48A C85A G94C	-2.1
A21G C36A C57U A64G G94U G126C A138G	≤ -4.2
A21G U33G A37U C85U C95U G141C	≤ -4.2
A21G A22U A24G A39U C87A C96A U148C	≤ -4.2
A21C A24U C54G C85U A121C	-0.525
A21C G50A C96U C125G	-1.98
A21G C27G U33C G58C C96U A97U A106G G141U	≤ -4.2
A20U G50A U55G C85U A91U A137G	≤ -4.2
A20U A52U C76A C93A	≤ -4.2
A20U C54G C87U A115G C149U	≤ -4.2
A21U A41G A60U C85U C103G C123A	-3.69

Variant	polymerase ribozyme fitness (log ratio)
A21G U56C C93U	-0.835
A21U A49G U55A G84A U104C A137U G140C A150C	≤ -4.2
A20U C36G G70A	-4.1
A21C U53A U56A C69U A98U G117C C118G U134A	≤ -4.2
A21C C27A A40U G46A C57U C87G G126A	≤ -4.2
A21C A22U C54U A73G A89G	-1.48
A21C U55G C93U G126U	-0.141
A21C A29G U44G C63U G68U C103U A137G G143U	≤ -4.2
A21C G34C A39U U55A C95G U104A A119G U144G U146A	≤ -4.2
A21G U44A G68U G83U A106G A115U C118A A119C C123U U144G	≤ -4.2
A21G U33G A52C U61G A64G U78G C95A A106G A142G	≤ -4.2
A21U A26C A39G A40C G50A G68C C72G U111C	≤ -4.2
A21C G68C C69A C93G U144G	≤ -4.2
A20U C38G C57U G86A	-3.63
A20U U56A C76U G133A	≤ -4.2
A21G A52G U102A	-1.09
A21C G84A C118A	-0.563
A21C U55A	-0.0725
A21C C95U C129A	-2.89
A21G A40U U56A C132A	-3.09
A21G A41C G46A G65U	≤ -4.2
A21G A40C G86U A119G A150C	≤ -4.2
A21C G34U U61A C87U U134G U135A G141C	≤ -4.2
A21G A22G A37C G62C G94C C103A A106C U130A	≤ -4.2

Variant	polymerase ribozyme fitness (log ratio)
A21C A26U C38U C87G C105U	≤ -4.2
A20U U53A A120G	-2.23
A21C G86A	-0.32
A21C U56G A89C C96A C116G A119C	-2.02
A21U A22G G88A A97G A106C C125U	≤ -4.2
A21C G42A C54A C96G U102G	≤ -4.2
A21G U53A A60U C96U C99G A110G	≤ -4.2
A21G U31A C95A	0.669
A20U C72U C85A U134C A150C	≤ -4.2
A21G U77G G88C U135G G143U A147C	≤ -4.2
A20U U33A G83A G86A G100A C149U	≤ -4.2
A21G U33G A52C A64C C75G C93G U151G	≤ -4.2
A20U U53A	-2.36
A21C G25A G92A G133U A150G	≤ -4.2
A21C A22U G86U U102C C116U A122G A138U	≤ -4.2
A21C A30C A41C G59A C95U	≤ -4.2
A21U A26G G71A C125U	≤ -4.2
A21U A40G A60G C96G U146G	-3.99
A21G A41U C85A C116U	-1.58
A21G A73G C85A C103U A122U	-1.86
A20U A122U U144G	-0.756
A21C G141C	1.03
A21C C93U	-1.24
A21C C93G	-3

Variant	polymerase ribozyme fitness (log ratio)
A20U G83C G92A U127A G128U	≤ -4.2
A21C G25C C76G A137C U145G	≤ -4.2
A21G A106C	-0.348
A21G A60G G68U C93G C95G U139C	≤ -4.2
A21G G42U C54A C72U C76U C79U G84U	≤ -4.2
A21U A26U A28U G67A G88A A122U	≤ -4.2
A20U G50A A89U A91G	≤ -4.2
A20U C96G A150U	0.47
A21G A49C G81A G141A	≤ -4.2
A21C U45G C54G G143C	≤ -4.2
A21G G81U G86U C123A	-1.08
A21C C35A G84A G117A U127G	≤ -4.2
A20U C32G A40G U55G	-4.19
A20U C93G	≤ -4.2
A20U C93A	-2.86
A20U C57G C93U C123U	-2.57
A20U C27A U31G A40G G42U C96G A97G	≤ -4.2
A20U C27A C38G C54U C79U G112A	≤ -4.2
A20U C96U A98G	-1.71
A21U A30C C51U G71U C85U	≤ -4.2
A21U A22U U53G	-0.816
A20U U55G C93G G94C A142G	≤ -4.2
A20U U45A G48U A64G A137U	≤ -4.2
A21C A52C C85U G117C	-0.924

Variant	polymerase ribozyme fitness (log ratio)
A20U C35A G92U A110U	≤ -4.2
A21G C99U	0.465
A21G C38U	0.63
A21C G25A C63G	-3.29
A20U G48A G84A G152C	≤ -4.2
A21G C36U A52U C116U A120U U144C	-3.59
A20U U82G C93U	-2.36
A21G A60G C63A C93G	-3.23
A21C A41C A115G	-1.51
A20U G74A A137U	≤ -4.2
A21C U55G G83U	-0.166
A21G G50C G71C C79A C95G A121U U127G G136U U139C A142C U145G	≤ -4.2
A20U C32U U56A A142U	-3.91
A21C A37C G84A	0.0671
A21C G42U C69G C85U A98U A106G A120U	≤ -4.2
A21G A37U	-0.976
A21U A40C	1.56
A20U C57U	-2.23
A20U C57A	-1.36
A21C C93A C99U G136U A142U	≤ -4.2
A20U U45A C118A	-3.82
A21U A41C G86A G100U A110C	≤ -4.2
A20U U31C A49C C57U A60G G62C C96A	-4.15
A20U G42A G62A G86U U134G G140U	≤ -4.2

Variant	polymerase ribozyme fitness (log ratio)
A21G G94A	-1.01
A21G G25U G50U C54U A73G C93A C108G C129G U135G	≤ -4.2
A21U A23G	-2.94
A21C G94C C116U	0.209
A21G A41G C93A C132A	-3.75
A21C C57G G81A A115C	-1.84
A21U A26C G141A	-3.34
A21U A29U U33G C35U G81U G84A	-4.1
A21C C57A G81U C85A U139G	-0.214
A21C U148A	-3.11
A20U C54A	-2.02
A21U A41G C95A C96A	-0.65
A21G G84U C118U	-1.39
A20U U53A U55A C118G	-3.98
A21C G59A	-0.0146
A20U G94A	-1.88
A21G C57A	1.14
A21G A60G U78C A89U G92A G124U A137G G143U	≤ -4.2
A21C C36G A41C C72U A73U U78G C96U C118U G128A A142U	≤ -4.2
A21U A22U G42A G70C C93U G140C G152U	≤ -4.2
A21C A28U G59C A97G U134C	≤ -4.2
A21C C85U	-0.369
A20U U31G U55A A73G C85G C87G U135C U148C	≤ -4.2
